According to the supplement of paper PMC9170038:

test system: MS2 coat protein; test: apparent KD of MS2 coat protein, switch ON state; designed switch direction (-1 OFF switch, 1 ON switch): 1; higher = weaker reporter binding; conditions: FMN input: 0 or 200 uM; Eterna round: R93 (includes R88 designs)
How it was run: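 Titration buffer: 100 mM Tris-HCl pH 7.5, 80 mM KCl, 4 mM MgCl2, without or with constant ligand. Designed RNA switches transcribed on-chip from Illumina sequencing clusters received SNAP-549-labelled MS2 coat protein in twofold steps from 0.7 or 1.5 nM to 3 µM. Apparent KD is the median per design of fits to normalised cluster binding curves.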

Point of comparison: “UACAGACAUGAGGAUCACCCAUGUAGAAUUAUGGGAGGAUAUACAAAGACGAGAGUCAGAGUAGAAGGCCUAGGAC [salish99-ss1-166]”, “apparent KD of MS2 coat protein” value 27.3 nM. Against it:
- GCAAAACAUGAGGAUCACCCAUGUGAAAAGAAUGUAGGAUAUGGGCUCAUAAAUAGCAGCCCAGAAGGGCGAAGAA [Onmace] — within 1.5-fold, 29.6 nM
- GUAUAUAUGAGGUAGGAUAUCCAAAAUAAAACAUGAGGAUCACCCAUGUAAAUAAAUAAUAAAUGGGAGAAGGACCACAUAUAUAC [Ex6 sub 3] — 1.7-fold lower, 16.2 nM
- AACAUACAUGAGGAUCACCCAUGUUUAUAAAAACAAGGAUAUAUAAGAACAAACAAACAAAUAGAAGGUGUAAAAA [Default title] — within 1.5-fold, 23.4 nM
- AGCACGCGAUUGGAGGAUAUGUUGUUUGCAACAUGAGGAUCACCCAUGUCUGAGGCUGAAAAGCAGCAGAAGGCCGAUACAACCA [SS2-1.1] — within 1.5-fold, 30.6 nM
- GGAGCCGGUACUGAGGAUAUUCAUAUUAAAACAUGAGGAUCACCCAUGUAGGCCAGAAGGCCUUGGGAGAAGGCAGACCAGCUCG [Atgexeedri] — within 1.5-fold, 19.1 nM
- GGAAGACAUGAGGAUCACCCAUGUGGGAAUAUGGGAGGAUAUACAAAGACGAGAGUCAGAGUAGAAGGCCUAGGAC [salish99-ss1-102] — within 1.5-fold, 32.8 nM
- AGAAAUAAAUGAGAGGAUAUCCAAAAGAAAACAUGAGGAUCACCCAUGUAAAAGAAAAUAAAAUGGGAGAAGGCUCGAAAUAAAG [80%, More Helter Skelter 2] — within 1.5-fold, 22.4 nM
- AGGAGACAUGAGGAUCACCCAUGUGCACGUGGAGGAGGAUAUGCUAGUAGAAGAUAGAAAGCAGAAGGCCUAAGAA [mod of top voted: #2] — 1.6-fold higher, 44.3 nM
- AAUAAACAUGAGGAUCACCCAUGUAGAAACAUGGGAGGAUAUACAAAGACGAAAGUCAAAGUAGAAGGCCUAAUAA [Mat - Same State 1 - Mod - D167] — 3.4-fold higher, 92.7 nM
- AAAAAACAUGAGGAUCACCCAUGUGAGAACAAGGGAGGAUAUACGAAGACGAAAGUCGAAGUAGAAGGCCUAAAAA [Garnet 81] — within 1.5-fold, 23.3 nM
- ACAAACAAAAAAGAGGAUAUCCAAAACAAAACAUGAGGAUCACCCAUGUAAAAGAAAAGAAAAUGGGAGAAGGCUUACAACAAAC [SS2 M 22] — within 1.5-fold, 19.4 nM
- AAGUCACAUGAGGAUCACCCAUGUCGUAAACGAUGAGGAUAUAGGAACGAAAGAAAAAAACUAGAAGGUAUAACAA [SameState1-03] — within 1.5-fold, 28.8 nM
- AAAUAAAUGACUGAGGAUAUGUCGAAGAAAACAUGAGGAUCACCCAUGUGAUAAUAAAAAGGGUGAUAGAAGGUAGUCAACAAAC [Mod 10 of Pariah 4 by Hyphema in Round 1] — 12-fold higher, 323 nM
- AAACCACAUGAGGAUCACCCAUGUAGAAAUAUGGGAGGAUAUACAAACACGAAAGUGAAAGUAGAAGGCCUAAAAG [77%, Mat - Mod of Eli, 7] — 1.5-fold lower, 17.7 nM
- CGCUCACAUGAGGAUCACCCAUGUCCUAGGAGGUCAGGAUAUAGCUCGGAUGCGUUGAGGCUAGAAGGGACAGGUG [JR_SS001_Sub606] — 2.9-fold higher, 78.6 nM
- UUAAAACAUGAGGAUCACCCAUGUAGAAAUAUGGGAGGAUAUACGAAGACGAAAGUCAAAGUAGAAGGCCUAAAUU [Mat - Same State 1 - Eli mod - D112] — within 1.5-fold, 25.2 nM
- AGGAAACAUGAGGAUCACCCAUGUAAAGAUGGGCGAGGAUAUCGAAAGAAAAGAAAGAAACGAGAAGGCGCAAAAG [Flamingo] — 1.6-fold higher, 43.7 nM
- UAAAAACAUGAGGAUCACCCAUGUGAGAACAUGGGAGGAUAUACAAGGACGAAAGUCAAGGUAGAAGGCCUAAAAU [Mat - Same State 1 - Mod - D175] — 5.9-fold higher, 160 nM
- UGGAGACAUGAGGAUCACCCAUGUGAGAAGAGGCGAGGAUAUCGAAAGAAAGAAGAGAAACGAGAAGGCGCGAGUC [salish99-SS1-046] — within 1.5-fold, 28.3 nM
- AAAUAAAUGACUAAGGAUAUAUCGAAGAAGACAUGAGGAUCACCCAUGUAAUAAUAAAAAGGGUGGUAGAAGGUAGUCAACAAAC [Mod 6 of Pariah 4 by Hyphema in Round 1] — 5.7-fold higher, 156 nM
- AGGAAACAUGAGGAUCACCCAUGUAAAAAAUAGGGAGGAUAUACUAGAAGAAACAAAAUAGUAGAAGGCUCAAAAA [75%, Ex sub1, 25] — 2.1-fold lower, 12.9 nM
- AGGAGACAUGAGGAUCACCCAUGUGAGAAGAGGCGAGGAUAUCGAAAGAAAGAAGAGAAACGAGAAGGCGCGAGCU [salish99-SS1-024] — within 1.5-fold, 24.4 nM
- AGAAAACAUGAGGAUCACCCAUGUAGAAAUAUGGGAGGAUAUACAUAGACGAAAGUCAUAGUAGAAGGCCUAAAGA [Mat - Same State 1 - Meechl mod - D128] — 1.8-fold lower, 15 nM
- AAAAUAAAAUAAAAGGAUAUAAAGAUAUAUACAUGAGGAUCACCCAUGUAUAUAUCAAUAAAAUAAAAGAAGGAAUAAAAAUAAA [SS2 510: MS2 10] — 1.8-fold lower, 14.8 nM
- AAGAGACAUGAGGAUCACCCAUGUAGGAUUAUGGGAGGAUAUACAAAGACGAGAGUCAGAGUAGAAGGCCUAGGAU [salish99-ss1-130(!)] — within 1.5-fold, 21.5 nM
- AACAAACAUGAGGAUCACCCAUGUCAAACAUACCAAGGAUAUGGGAGACGAGACUCGUCACCAGAAGGUGGAAAUU [Maatce] — 3.9-fold higher, 106 nM
- AAGAGAAGAACUGAGGAUAUCAGGGAUGGUACAUGAGGAUCACCCAUGUUGGCAAGCGAAGAAACUGAGAAGGCAGAGAAGAAGAA [JR_SameState2_Sub6] — within 1.5-fold, 29.4 nM
- GGGCAAGAGAGAGAGGAUAUCCAAAGGAAAACAUGAGGAUCACCCAUGUAGAAGGUAGGAAAUUGGGAGAAGGCUCAAGAGAGAG [salish99-ss2-137] — 3.2-fold lower, 8.51 nM
- AAAAUAUAAAGGAAGGAUAUCCAAAGGACUACAUGAGGAUCACCCAUGUAAAGAAAGAAUAAAUGGGAGAAGGUCCAAAUAAUAA [Designing denovo 32] — 1.6-fold higher, 44 nM
- AAUAUAUUAAGUGAGGAUAUCAAAGAAAAAACAUGAGGAUCACCCAUGUGGGAAACCUGGUCGGGUGAGAAGGCACUUAAUAUAU [Samwise Clockwise 28 - Jieux - Same State 2] — within 1.5-fold, 31.3 nM
- GACUAACAUGAGGAUCACCCAUGUAUUCAAACAUGAGGAUAUAUAACACAUCAUCGACGGAUAGAAGGCAUAGAUA [JR_SS001_Sub1207] — 3-fold higher, 81.1 nM
- GGAAGACAUGAGGAUCACCCAUGUGGGAUUAUGGGAGGAUAUACAAAGACGAGAGUCAGAGUAGAAGGCCUAGGAC [salish99-ss1-123(!)] — within 1.5-fold, 31.1 nM
- AAAAAACAUGAGGAUCACCCAUGUAUAAAAUGGGAAGGAUAUACUAAGACGAAAGUCAUAGUAGAAGGUCCAAAAA [76%, Meechl, 12] — 1.6-fold higher, 44.5 nM
- AAAUGACAUGAGGAUCACCCAUGUCCACCAAACGGAGGAUAUUGGGCGGCAAAACGUUGUUAAGAAGGCCGAAAAA [SS1-1.1] — 2.2-fold higher, 60 nM
- AAAAAAAAAGUAUAGGAUAUCCGAGUGGUAACAUGAGGAUCACCCAUGUGAAGAAAGGAAGAUGAGGAGAAGGAUACAAAAAAAAA [Mod of Mat of Nando] — within 1.5-fold, 27.9 nM
- AAGAAACAUGAGGAUCACCCAUGUGAUAAUAUGGGAGGAUAUACGAAGACGAAAGACGAAGUAGAAGGCCUAAGAA [Garnet 46] — 1.7-fold higher, 45.3 nM
- AGAAAUAAAAGAGAGGAUAUCCAAAAGAAAACAUGAGGAUCACCCAUGUAAAAGAAAAUAAAAUGGGAGAAGGCUCAUAUUAAAG [JL Skelter 2 mod 3] — 1.6-fold higher, 44.9 nM
- UGGAGACAUGAGGAUCACCCAUGUGAGAAGAGGCGAGGAUAUCGAAAGAAAGAAGAGAAACGAGAAGGCGCGAGAG [salish99-SS1-041] — 1.6-fold higher, 42.7 nM
- AUAGACAUAGUUCAGGAUAUGGUAAUAGUCACAUGAGGAUCACCCAUGUGCAUUUAUAUGCGCGAUCAGAAGGGAGGUAGAUAUA [Mat - Same state - Malcolm Mod - D117] — 1.5-fold lower, 17.7 nM
- AGGAAACAUGAGGAUCACCCAUGUAUAAAAAAUACAGGAUAUGGAAACACGAAAGUGAAACCAGAAGGGUAAAAAA [77%, Mat - Mod of Eli, 32] — 1.7-fold lower, 15.9 nM
- AAAUAAAUAAGAGAGGAUAUGUCAGAGAAAACAUGAGGAUCACCCAUGUAAUAAUAAAAAGGGUGACAGAAGGCUCAAAACAAAC [Hyphema modified] — within 1.5-fold, 32.3 nM
- AAAAGACAUGAGGAUCACCCAUGUAAAAACGUAGGAGGAUAUGUCGUGAAAAAAGACUUGACAGAAGGCCUGUGUC [SS1 - 35] — within 1.5-fold, 25.9 nM
